In publication PMC13438699:

Target: A/Solomon Islands/3/2006 (H1N1) HA (influenza A virus A/Solomon Islands/3/2006 (H1N1))
Test: cryo-EM structure

“A/Solomon Islands/3/2006 (H1N1) HA (natural protein)” showed a stoichiometry N of 3.
